According to the RNAGym collection of RNA variant scans (doi:10.1021/acssynbio.7b00057):

B1: Pistol ribozyme (parent)
chain: GGGUCGUUGUUCCAUAAUCGCGUGGAUAUGGCACGCAAGUUUCUACCGGGCACCGUAAAUGUCCGACUGGAGCCGUUCGGGCGGCUAUAAACAGACCUCAGGCCCGAAGCGUGGCGGCACCUGCCGCCGGUGGUAAAAAAGAUCGGAAGAGCACACGUCU

Variants of: B1
Test: aptazyme ON/OFF ratio, guanine; higher = stronger switching; co-transcriptional cleavage with and without guanine

Variant | aptazyme ON/OFF ratio
GGGUCGUUCGCACAUAAUCGCGUGGAUAUGGCACGCAAGUUUCUACCGGGCACCGUAAAUGUCCGACUGGAGCCGUUCGGGCGGCUAUAAACAGACCUCAGGCCCGAAGCGUGGCGGCACCUGCCGCCGGUGGUAAAAAAGAUCGGAAGAGCACACGUCU | 1.37
GGGUCGUUCGAGAAUAAUCGCGUGGAUAUGGCACGCAAGUUUCUACCGGGCACCGUAAAUGUCCGACUGGAGCCGUUCGGGCGGCUAUAAACAGACCUCAGGCCCGAAGCGUGGCGGCACCUGCCGCCGGUGGUAAAAAAGAUCGGAAGAGCACACGUCU | 1.11
GGGUCGUUCGAGGAUAAUCGCGUGGAUAUGGCACGCAAGUUUCUACCGGGCACCGUAAAUGUCCGACUGGAGCCGUUCGGGCGGCUAUAAACAGACCUCAGGCCCGAAGCGUGGCGGCACCUGCCGCCGGUGGUAAAAAAGAUCGGAAGAGCACACGUCU | 1.24
GGGUCGUUCGAGUAUAAUCGCGUGGAUAUGGCACGCAAGUUUCUACCGGGCACCGUAAAUGUCCGACUGGAGCCGUUCGGGCGGCUAUAAACAGACCUCAGGCCCGAAGCGUGGCGGCACCUGCCGCCGGUGGUAAAAAAGAUCGGAAGAGCACACGUCU | 1.07
GGGUCGUUCCGCUAUAAUCGCGUGGAUAUGGCACGCAAGUUUCUACCGGGCACCGUAAAUGUCCGACUGGAGCCGUUCGGGCGGCUAUAAACAGACCUCAGGCCCGAAGCGUGGCGGCACCUGCCGCCGGUGGUAAAAAAGAUCGGAAGAGCACACGUCU | 1.08
GGGUCGUUCCGCGAUAAUCGCGUGGAUAUGGCACGCAAGUUUCUACCGGGCACCGUAAAUGUCCGACUGGAGCCGUUCGGGCGGCUAUAAACAGACCUCAGGCCCGAAGCGUGGCGGCACCUGCCGCCGGUGGUAAAAAAGAUCGGAAGAGCACACGUCU | 1.08
GGGUCGUUCGUCUAUAAUCGCGUGGAUAUGGCACGCAAGUUUCUACCGGGCACCGUAAAUGUCCGACUGGAGCCGUUCGGGCGGCUAUAAACAGACCUCAGGCCCGAAGCGUGGCGGCACCUGCCGCCGGUGGUAAAAAAGAUCGGAAGAGCACACGUCU | 1.49
GGGUCGUUCGUCGAUAAUCGCGUGGAUAUGGCACGCAAGUUUCUACCGGGCACCGUAAAUGUCCGACUGGAGCCGUUCGGGCGGCUAUAAACAGACCUCAGGCCCGAAGCGUGGCGGCACCUGCCGCCGGUGGUAAAAAAGAUCGGAAGAGCACACGUCU | 1.1
GGGUCGUUCGUCAAUAAUCGCGUGGAUAUGGCACGCAAGUUUCUACCGGGCACCGUAAAUGUCCGACUGGAGCCGUUCGGGCGGCUAUAAACAGACCUCAGGCCCGAAGCGUGGCGGCACCUGCCGCCGGUGGUAAAAAAGAUCGGAAGAGCACACGUCU | 1.28
GGGUCGUUCGUAGAUAAUCGCGUGGAUAUGGCACGCAAGUUUCUACCGGGCACCGUAAAUGUCCGACUGGAGCCGUUCGGGCGGCUAUAAACAGACCUCAGGCCCGAAGCGUGGCGGCACCUGCCGCCGGUGGUAAAAAAGAUCGGAAGAGCACACGUCU | 1.11
GGGUCGUUCGUAAAUAAUCGCGUGGAUAUGGCACGCAAGUUUCUACCGGGCACCGUAAAUGUCCGACUGGAGCCGUUCGGGCGGCUAUAAACAGACCUCAGGCCCGAAGCGUGGCGGCACCUGCCGCCGGUGGUAAAAAAGAUCGGAAGAGCACACGUCU | 1.15
GGGUCGUUCGUAUAUAAUCGCGUGGAUAUGGCACGCAAGUUUCUACCGGGCACCGUAAAUGUCCGACUGGAGCCGUUCGGGCGGCUAUAAACAGACCUCAGGCCCGAAGCGUGGCGGCACCUGCCGCCGGUGGUAAAAAAGAUCGGAAGAGCACACGUCU | 1.32
GGGUCGUUCGACGAUAAUCGCGUGGAUAUGGCACGCAAGUUUCUACCGGGCACCGUAAAUGUCCGACUGGAGCCGUUCGGGCGGCUAUAAACAGACCUCAGGCCCGAAGCGUGGCGGCACCUGCCGCCGGUGGUAAAAAAGAUCGGAAGAGCACACGUCU | 1.09
GGGUCGUUCGACAAUAAUCGCGUGGAUAUGGCACGCAAGUUUCUACCGGGCACCGUAAAUGUCCGACUGGAGCCGUUCGGGCGGCUAUAAACAGACCUCAGGCCCGAAGCGUGGCGGCACCUGCCGCCGGUGGUAAAAAAGAUCGGAAGAGCACACGUCU | 1.08
GGGUCGUUCGACUAUAAUCGCGUGGAUAUGGCACGCAAGUUUCUACCGGGCACCGUAAAUGUCCGACUGGAGCCGUUCGGGCGGCUAUAAACAGACCUCAGGCCCGAAGCGUGGCGGCACCUGCCGCCGGUGGUAAAAAAGAUCGGAAGAGCACACGUCU | 1.05
GGGUCGUUCGUGUAUAAUCGCGUGGAUAUGGCACGCAAGUUUCUACCGGGCACCGUAAAUGUCCGACUGGAGCCGUUCGGGCGGCUAUAAACAGACCUCAGGCCCGAAGCGUGGCGGCACCUGCCGCCGGUGGUAAAAAAGAUCGGAAGAGCACACGUCU | 1.05
GGGUCGUUCGUGGAUAAUCGCGUGGAUAUGGCACGCAAGUUUCUACCGGGCACCGUAAAUGUCCGACUGGAGCCGUUCGGGCGGCUAUAAACAGACCUCAGGCCCGAAGCGUGGCGGCACCUGCCGCCGGUGGUAAAAAAGAUCGGAAGAGCACACGUCU | 1.14
GGGUCGUUCGUGAAUAAUCGCGUGGAUAUGGCACGCAAGUUUCUACCGGGCACCGUAAAUGUCCGACUGGAGCCGUUCGGGCGGCUAUAAACAGACCUCAGGCCCGAAGCGUGGCGGCACCUGCCGCCGGUGGUAAAAAAGAUCGGAAGAGCACACGUCU | 1.22

Variant | aptazyme ON/OFF ratio
GGGUCGUUCGAUUAUAAUCGCGUGGAUAUGGCACGCAAGUUUCUACCGGGCACCGUAAAUGUCCGACUGGAGCCGUUCGGGCGGCUAUAAACAGACCUCAGGCCCGAAGCGUGGCGGCACCUGCCGCCGGUGGUAAAAAAGAUCGGAAGAGCACACGUCU | 1.08
GGGUCGUUCGAUAAUAAUCGCGUGGAUAUGGCACGCAAGUUUCUACCGGGCACCGUAAAUGUCCGACUGGAGCCGUUCGGGCGGCUAUAAACAGACCUCAGGCCCGAAGCGUGGCGGCACCUGCCGCCGGUGGUAAAAAAGAUCGGAAGAGCACACGUCU | 1.09
GGGUCGUUCGAUGAUAAUCGCGUGGAUAUGGCACGCAAGUUUCUACCGGGCACCGUAAAUGUCCGACUGGAGCCGUUCGGGCGGCUAUAAACAGACCUCAGGCCCGAAGCGUGGCGGCACCUGCCGCCGGUGGUAAAAAAGAUCGGAAGAGCACACGUCU | 1.09
GGGUCGUUCGUCCAUAAUCGCGUGGAUAUGGCACGCAAGUUUCUACCGGGCACCGUAAAUGUCCGACUGGAGCCGUUCGGGCGGCUAUAAACAGACCUCAGGCCCGAAGCGUGGCGGCACCUGCCGCCGGUGGUAAAAAAGAUCGGAAGAGCACACGUCU | 2.17
GGGUCGUUCGAAGAUAAUCGCGUGGAUAUGGCACGCAAGUUUCUACCGGGCACCGUAAAUGUCCGACUGGAGCCGUUCGGGCGGCUAUAAACAGACCUCAGGCCCGAAGCGUGGCGGCACCUGCCGCCGGUGGUAAAAAAGAUCGGAAGAGCACACGUCU | 1.06
GGGUCGUUCGAAUAUAAUCGCGUGGAUAUGGCACGCAAGUUUCUACCGGGCACCGUAAAUGUCCGACUGGAGCCGUUCGGGCGGCUAUAAACAGACCUCAGGCCCGAAGCGUGGCGGCACCUGCCGCCGGUGGUAAAAAAGAUCGGAAGAGCACACGUCU | 1.52
GGGUCGUUCGAAAAUAAUCGCGUGGAUAUGGCACGCAAGUUUCUACCGGGCACCGUAAAUGUCCGACUGGAGCCGUUCGGGCGGCUAUAAACAGACCUCAGGCCCGAAGCGUGGCGGCACCUGCCGCCGGUGGUAAAAAAGAUCGGAAGAGCACACGUCU | 1.23
GGGUCGUUCGAUCAUAAUCGCGUGGAUAUGGCACGCAAGUUUCUACCGGGCACCGUAAAUGUCCGACUGGAGCCGUUCGGGCGGCUAUAAACAGACCUCAGGCCCGAAGCGUGGCGGCACCUGCCGCCGGUGGUAAAAAAGAUCGGAAGAGCACACGUCU | 1.04
GGGUCGUUCGAGCAUAAUCGCGUGGAUAUGGCACGCAAGUUUCUACCGGGCACCGUAAAUGUCCGACUGGAGCCGUUCGGGCGGCUAUAAACAGACCUCAGGCCCGAAGCGUGGCGGCACCUGCCGCCGGUGGUAAAAAAGAUCGGAAGAGCACACGUCU | 1.27
GGGUCGUUCGAACAUAAUCGCGUGGAUAUGGCACGCAAGUUUCUACCGGGCACCGUAAAUGUCCGACUGGAGCCGUUCGGGCGGCUAUAAACAGACCUCAGGCCCGAAGCGUGGCGGCACCUGCCGCCGGUGGUAAAAAAGAUCGGAAGAGCACACGUCU | 1.31
GGGUCGUUCGACCAUAAUCGCGUGGAUAUGGCACGCAAGUUUCUACCGGGCACCGUAAAUGUCCGACUGGAGCCGUUCGGGCGGCUAUAAACAGACCUCAGGCCCGAAGCGUGGCGGCACCUGCCGCCGGUGGUAAAAAAGAUCGGAAGAGCACACGUCU | 1.08
GGGUCGUUCGCCCAUAAUCGCGUGGAUAUGGCACGCAAGUUUCUACCGGGCACCGUAAAUGUCCGACUGGAGCCGUUCGGGCGGCUAUAAACAGACCUCAGGCCCGAAGCGUGGCGGCACCUGCCGCCGGUGGUAAAAAAGAUCGGAAGAGCACACGUCU | 1.06
GGGUCGUUCGUUCAUAAUCGCGUGGAUAUGGCACGCAAGUUUCUACCGGGCACCGUAAAUGUCCGACUGGAGCCGUUCGGGCGGCUAUAAACAGACCUCAGGCCCGAAGCGUGGCGGCACCUGCCGCCGGUGGUAAAAAAGAUCGGAAGAGCACACGUCU | 1.47
GGGUCGUUCGUGCAUAAUCGCGUGGAUAUGGCACGCAAGUUUCUACCGGGCACCGUAAAUGUCCGACUGGAGCCGUUCGGGCGGCUAUAAACAGACCUCAGGCCCGAAGCGUGGCGGCACCUGCCGCCGGUGGUAAAAAAGAUCGGAAGAGCACACGUCU | 1.19
GGGUCGUUCGUACAUAAUCGCGUGGAUAUGGCACGCAAGUUUCUACCGGGCACCGUAAAUGUCCGACUGGAGCCGUUCGGGCGGCUAUAAACAGACCUCAGGCCCGAAGCGUGGCGGCACCUGCCGCCGGUGGUAAAAAAGAUCGGAAGAGCACACGUCU | 1.3
GGGUCGUUCGUUGAUAAUCGCGUGGAUAUGGCACGCAAGUUUCUACCGGGCACCGUAAAUGUCCGACUGGAGCCGUUCGGGCGGCUAUAAACAGACCUCAGGCCCGAAGCGUGGCGGCACCUGCCGCCGGUGGUAAAAAAGAUCGGAAGAGCACACGUCU | 1.15
GGGUCGUUCGUUUAUAAUCGCGUGGAUAUGGCACGCAAGUUUCUACCGGGCACCGUAAAUGUCCGACUGGAGCCGUUCGGGCGGCUAUAAACAGACCUCAGGCCCGAAGCGUGGCGGCACCUGCCGCCGGUGGUAAAAAAGAUCGGAAGAGCACACGUCU | 1.22
GGGUCGUUCGUUAAUAAUCGCGUGGAUAUGGCACGCAAGUUUCUACCGGGCACCGUAAAUGUCCGACUGGAGCCGUUCGGGCGGCUAUAAACAGACCUCAGGCCCGAAGCGUGGCGGCACCUGCCGCCGGUGGUAAAAAAGAUCGGAAGAGCACACGUCU | 1.15
